Laboratory results taken from a protein production outcome set (Wang et al. 2014).

Experiment: label from the status in PepcDB records
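Also: failed if final PepcDB status was selected cloned or expressed and not failed if soluble or beyond.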

Sequence	protein production
MSLSQDGLLGEVLSEGVLTLTLGRAPAHPLSRAMIAALHDALRRAMGDDHVHVLVIHGPGRIFCAGHDLKEIGRHRADPDEGRAFVTDLFEACSALMLDLAHCPKPTIALVEGIATAAGLQLMAACDLAYASPAARFCLPGVQNGGFCTTPAVAVSRVIGRRAVTEMALTGATYDADWALAAGLINRILPEAALATHVADLAGALAARNQAPLRRGLETLNRHLELPLEQAYALATPVMVEHFMDPGRRHLDWIDEGHHHHHH	not failed
MFADISAQHWAFAIYVIGAIAICLTMIGLAALLGGRAQGRTKNKPFESGVDSVGTARLRFSAKFYLVAMFFVIFDVEALYLFAWSVSVRESGWVGFIEATIFIGLLLIGLVYLWRIGALEWSPRKPQLNNKNTD	failed
MVPLESSTLFGVYGGFTDSMMMRETTTNNQDPSGDTCSVSDPAPGSTDYYNISSSPVKDDGTAPKNDVVCSINVDDNKDKSWLRLGIGPEENTDGSYKLQRCCSKNGSGRENSLELSLFSSSSTAVSSSIDHLPTQPLQLPYHHDQLLTMRGPSLVYNHQLMKPQTLLNRGFSFPSSKPWIPQYMAPFRPSSLSDRDVTNNNSLSRSCCVDEGGAGPSSEFRVLDPPRRPHSGLWFLLQASQFQ	failed
MGHHHHHHSHPQLLHFVDQYREQLIARVTSVEVVLDKLHGQVLSQEQYERVLAENTRPSQMRKLFSLSQSWDRKCKDGLYQALKETHPHLIMELWEKGSKKGLLPLSS	not failed
MQRFALIGAGFIGGVHGDNLAAHPDVDLALVFDIDLARATDLAKRHGSRATTDLAEVFDPTAIDAVFIASSSNTHAEHLRAAATAGIPALCEKPIDLDLAHAVDIVRFAETRSLRAMVDFNRRFDRDYAELQRVVASGEIGSVELIQMTSRGPAMPPLEYIAVSGGQMRDQTVHFFDLARWISGLDPESVFATGSTLAEPRLAEYGDVDTSAVTLRLPGGALVQIDCTRRIGYGYDERIEVLGSTGMVEARRQRAGSVSRYSAGRVVDDGLHAGWFERIRGSYRTALDHFVDALENGAAIGPTLAEGLKAQAIAEAATRSLTSGRMEPIEYPA	failed
MRIKNKCLVLLIPLGISIMFDIRVKAFQPVSHYVVIEQAESKMSNDSIIRKAIEAYPNVAAWGSVGPDLGYMQVGELGDYSPWGDRYHYYKVGTYAAKQLKNALETRDMKKIAFAAGWISHVTGDLACHGIYVNPECGVYLDNKDGRKQHKHMEAEAEPYAWVNIAGHSINDYNSNNMSNNVFKGTDDIPFDLMNETSKEVYGQSPSTAEEKLWASTLLTGLRTGVGYSYTDYNESKQFLSINSREQRLNASFSQGINQCYKLLTYSENGDYSKFTDRWNLDVGKSSSPISSLTTIISTGTNLGSGTDDDIYFGIHLNNGQKKEWLLDKETYNDFENGATDEYYLYINDMDFLPTMVDKVWVRKNSTGSFAGNWFFKALRIDANGNDVLSVSPNEWITDSNSQAEFNSDWSSVTNLTDPEF	failed
MMTGRKRGMIMSRRIITIGRQYGSNGRRIAKKLSEKLGIHYYDKELIKLASEQNDISYDELVKVDEKRANPWRYPVEDPAQMESRFRFEPMNDVLFYTQAQIITRLADTEDCIIVGRCANDILKSRPTSRSIFIHAPLDYRLQTVMERTSLEEKEALSLIKKVDKQRKFYYNYYTDKKWEEMSQYDLCLDSSAMSEDEILNVLTALYESIL	failed
MQNSIYKQFWKYTIPTVAAMLVNGLYQVVDGIFIGRYVGADGLAGINVAWPVIGSILGIGMMVGVGTGALTSIKQGEQDQQGAKRVLTTGLLFLLALMPIVATILFFFADDFIRWQGAQERVYELGLQYLQILIVACIFSLGSIAVPFLLRNDNSPNLATILMVIGAIINIVLDYVFIAWMNWELTGAAIATALAQMVVTVLGVGYFFSSKAKLRLTFRELKVQLDAIPKIVLIGTSSFFMYAYGSTMVALHNALFAQYGSPLLIGAYAILGYIVTVYYLVAEGIANGMQPLVSYNHGARNQDNIRKLLQIAMGTSVLGGVVFVVLMNLFPYQLVSVFNDADQQLIESAVMGIRLHMFALFMDGFLVVAGAYYQSVNKGSKAMFVTVGNMLIQLPFLFIMPKLLGVTGIWIAFPLSNIALSLVVMSMLWRDIKKLMVDSPVEPSIQAS	not failed
RETYPDAVKICNICHSLLIQGQSCETCGIRMHLPCVAKYFQSNAEPRCPHCNDYWPHEIPK	not failed
MPLSYLSPSSSEERSDDPSKYDGDFGVPQICFCGKQLDLGWDLAVHEQCFCIDKRFGEHRELIQNAFKFGGDSNRLQINQIRAEIEDLKDRLDKKDAEITRLMDALGKK	failed
MKTYALVMAGGRGERLWPLSREDRPKPFLPLFEGKTLLEATLERLAPLVPPERTLLAVRRDQEAVARPYADGIRLLLEPLGRDTAGAVLLGVAEALKEGAERLLVLPADHYVGDDEAYREALATMLEAAEEGFVVALGLRPTRPETEYGYIRLGPREGAWYRGEGFVEKPSYAEALEYIRKGYVWNGGVFAFAPATMAELFRRHLPSHHEALERLLAGASLEEVYAGLPKISIDYGVMEKAERVRVVLGRFPWDDVGNWRALERVFSQDPHENVVLGEGRHVALDTFGCVVYADRGVVATLGVSGLVVAKVGDEVLVVPKDWAREVREVVKRLEAQE	not failed
MIGDGIENSPLLTDLAFPYRLLGAGKESRECLFLLHGSGVDETTLVPLARRIAPTATLVAARGRIPQEDGFRWFERIDPTRFEQKSILAETAAFAAFTNEAAKRHGLNLDHATFLGYSNGANLVSSLMLLHPGIVRLAALLRPMPVLDHVPATDLAGIRTLIIAGAADETYGPFVPALVTLLSRHGAEVDARIIPSGHDIGDPDAAIVRQWLAGPIAIAQAD	not failed
MKYLHFTRPTIKVIFMINSIKTLLLIATLAILSACGWHFQQSVTMPSEWRTLALESDDSYNDFTVIMRRKLQENQVNVVNLEQNIPILRINKQITSDQVASIFKHGREAEKLLMLEVEATFRLANGESYPINAKVNRTFFDNARAALAKSEEREVIWNDMREQVARQLIVKIIALQNQIKRKLEHHHHHH	failed
MSETAIQTKTQARQRKVFAHHHVQHYRSQLERRISHSPQFREGKVINAMPHITATPSWWQTAWSYFGGRAQLKPNAQLPVAPLNLQALQTRSKALRVTWLGHSSLFIEVDGLRVLTDPVFDYASPWIAKAWFARNLPNSGVREQLPLPDVIVISHDHYDHLEQASVVYYAAHSVTFYVPLGVGQHLIRWGVSPERIIEFDWWEQIKREGVEFICTPANHNSGRYYLDHNATLWCSWVIKGHQETLYFSGDSAYDTHFAKIAERCGPIDLACLEVAADVKQHQGYPVENWGHMQAKHTVQAFRDLQAKKLLPIHWATYELFTHQWDEPIADLVKHCQEQSITLLTPMAGESLTMANHSASHAWWQGLETEPMSGARYWQMGLACSLLLLLMVV	failed
MNVRKFPFAMRAGVAGMLALAALLAGCGSLSGSEMSRRTDADIEVARQRQADEKAELTSPGTYLSLIRRMQEQGMYYASLAHIDAYVQRFGRTPDVLLLRADALRETDQPAAAEADYRAVVEATSALGAGTQGALLNANAWRGLGITAGRQGRFAEAVRRLQLAARGNPTDASTESDLGYALMRAGEVEQARVPLMQAAQLDAANPKIAGNLAIWLDVNDRKEAAAALTAHARLSEAARKAIDEDAARVRSAWRDRRVARDTAPQPVQRAVVANPALMPAAAAPRSSAPLAFQRGRLLDNLEAAQ	failed
MTLITVVFVAFALLVIFYTNFMTHTLCERKQIAASRQPGVFRVINVCITILLISSYIEIIFHGK	failed
MIIVYTTFPDWESAEKVVKTLLKERLIACANLREHRAFYWWEGKIEEDKEVGAILKTREDLWEELKERIKELHPYDVPAIIRIDVDDVNEDYLKWLIEETKK	not failed
MSDFGILSLLPPLVAIVLAIWTKRVVFALFSGVWIGGVMAANWNPITGTIKTFEWIIQNVTNSWNATILVFDFLIGAGVGLIYKSGGVHAVANAITKRIKTSRDASLLGWLLGVLIFFDDYTNTIIVGNTMRPITDKMRVSREMLAYIDDSTAAPVAGIAIVSTWIGYELGLIKEAFEKLHITMGEYYAWLHSVPYRFYSIFAIILVFIVAYTHRHYGAMLKAEMRARTTGKVVRDDAKPLMATESDLGLPLTEKGSVHFFIWPVLSLIIVTLLGLYYTGKAACEGPCGAMDILSNADSATSLLWGSFAMVAVALTLVLATKTMTVEETESAIIQGMKQMMMATVILVLAWSIKSATEAVGTAEYVVGLAQRANVPGGIIPLIIFLTAMFISFTTGTSWGTFGILMPIAIPLAYKLAPNDPQVLFASIGAVFAGGIFGDHCSPISDTTIMSSMFSGSDHIDHVTTQIPYAVTAASVGIVLYILFALGIKSPVILLPVGLVLLIAAWYFLSEWYGKKYGVPHGRVPIYPTEISE	failed
MTDAPATPYAARTPVHEQHLDGFGTVRVLPLDPAADAAVVHGWVGEERAAFWGMNDLTRDQVAAVYAHMDTLDTHHAFLVVKDGEPAALLQTYDPAADRVSECYAAEPGDIGVHLLLAPAGAEGTRPGWTAALSGALMAYVLLGLDRTRIVVDPDVANEKAIARFLKQGFTAGPAVVLPEVDLPDVYLPEKKAQLAFLRREVAFGA	failed
MKKQRNLRSMAAQAVEQVVEQGQSLSNILPPLQQKVSDKDKALLQELCFGVLRTLSQLDWLINKLMARPMTGKQRTVHYLIMVGLYQLLYTRIPPHAALAETVEGAIAIKRPQLKGLINGVLRQFQRQQEELLAEFNASDARYLHPSWLLKRLQKAYPEQWQSIVEANNQRPPMWLRINRTHHSRDSWLALLDEAGMKGFPHADYPDAVRLETPAPVHALPGFEDGWVTVQDASAQGCMTWLAPQNGEHILDLCAAPGGKTTHILEVAPEAQVVAVDIDEQRLSRVYDNLKRLGMKATVKQGDGRYPSQWCGEQQFDRILLDAPCSATGVIRRHPDIKWLRRDRDIPELAQLQSEILDAIWPHLKTGGTLVYATCSVLPEENSLQIKAFLQRTADAELCETGTPEQPGKQNLPGAEEGDGFFYAKLIKK	failed
GSQPKLTEAVSLMEANIEEPLSTDDIAYYVGVSRRQLERLFKQYLGTVPSKYYLELRLNRARQLLQQTSKSIVQIGLACGFSSGPHFSSTYRNHFNITPREERAQRAQPGAL	not failed
MATLYDAPVDELIDELAADLETRLDEPDWANYAKTGAGRELPPEQSDFWATRAASLLRKVAIDGPIGVKRLSEAYGSTTSGSNRYVVAPSTTTAGSRNIVRTILQQLEAEGLVEQQHDHGRVVTGDGRSLLDETAGDVIESLDRPELERYA	failed
MESLLRADQTLIPGAMCSRRVWTHSELALPSVSVTELDLVRGLLQALQGLSSPFLFWDQTGQTFRAKSHIRVSHLSHSSLHVLLAGFLYPATCLKLVESIVAAINTSLRSPPTLMAFSDSVSAWLEANIALKEEVMIDNSDITVTPTLLGLTSAEYLLQVVHGAIPHTFFDSNSTISAAEIAVHVLDYLYKKLDEVCLVQGGEVEGFHMLLQMFAGSLLPYIEGLDSWLFEGTLDDPCEELFFTANQSVSVDDAEFWEKSYQLMKVPNSKSNVTSLNEKKVMSGHDANSSLASDKDKEQNTRVLCPLFIKDICKSIVSAGKSLQLMQHIPSTSSENSGKTQFHGRNGYGKSSVGSLLTKMSSCSSTADLSLSEVFCLTLAGLIGHGDHVSRYLWKDEADEWEISPTLASYISGELVNDMDNKDLPVLTCSERMWYKLLVGAVQEKRAMEAKSELQSACYATGVKDGNSGLTAQKALQGLFCNENLVVSVSKMDLERNRNAWNVLNLSQNYCLPSLNDESLLSAVFEESGMADAGLSGTNYKFGFQFGRSEYISSQDDTNLLETLFPFPTLLPSFQAEPMDTRLPVVIMQECFTIYIRRQVDYIGKVILSKLMNDWKLMHELAVLRAIYLLGSGDLLQHFLTVIFDRLGKGESSNDDFELNIILQESIRNSADAMLLSSPDSLVVSISREDRDKDDKGDIIPLSSTRKSRVNSFGIDCLESLKFTYKVPWPLELIANSEAIKKYNQVKRAKYVLDKARRWMWKGKGSATKIRKHHWLLEQKLLNFVDAFHQYVMDRVYHTAWRELCEAMVKAGSLDEVIYVHETYLLSIQRQCFVVQEKLWAIIASRINMILGLALEFYSIQQTLSSGGAVSAIKARCEMEIDRIEKQFEDCIAFLLRVLSSKLNVGHFPHLADLVTRINYNYHYMSDTGSLMTTSGAETNSSRPWTAKSDV	failed
